Inhibition of NS2B-NS3 protease (cleavage of fluorogenic peptide substrate) (% inhibition data for 1 molecule are collected here from patent publication US20150202250A1.

The target of this assay is isolated NS2B-NS3 protein complex from the DENV-2 viral genome (Dengue virus type 2 (DENV-2)) (UniProt P14340). The experiment in a line: cell-based or functional assay.
UniProt P14340, sequence (P14340 1394-1440 limits assumed, chain 1 of 2): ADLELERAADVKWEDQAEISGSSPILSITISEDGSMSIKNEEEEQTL
UniProt P14340, sequence (P14340 1476-1660 limits assumed, chain 2 of 2): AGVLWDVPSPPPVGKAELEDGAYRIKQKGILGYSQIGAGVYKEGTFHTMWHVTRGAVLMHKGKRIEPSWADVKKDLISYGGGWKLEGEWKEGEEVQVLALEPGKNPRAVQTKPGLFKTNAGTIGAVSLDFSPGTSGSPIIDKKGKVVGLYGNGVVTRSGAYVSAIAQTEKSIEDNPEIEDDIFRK

B1: RetroMAD1 (protein)
chain: MGRICRCICGRGICRCICGVPGVGVPGVGGATGSDVNFDLSTATAKTYTKFIEDFRATLPFSHKVYDIPLLYSTISDSRRFILLDLTSYAYETISVAIDVTNVYVVAYRTRDVSYFFKESPPEAYNILFKGTRKITLPYTGNYENLQTAAHKIRENIDLGLPALSSAITTLFYYNAQSAPSALLVLIQTTAEAARFKYIERHVAKYVATNFKPNLAIISLENQWSALSKQIFLAQNQGGKFRNPVDLIKPTGERFQVTNVDSDVVKGNIKLLLNSRASTADENFITTMTLLGESVVEFPWALWKTMLKELGTMALHAGKAALGAAADTISQGTQVPGVGVPGVGKLAAALEHHHHHH
B1 gave an inhibition of NS2B-NS3 protease (cleavage of fluorogenic peptide substrate) (% inhibition at 10.8 µM) of 94.3.
